The source of these data is article PMC9599535.

A word on the stoichiometry N: it is a count of units in the complex or per binding partner.

Assay [1] has as its target recombinant purified multimeric HIV-1 CA tubes assembled from cross-linked CA hexamers (CA A14C/E45C) (HIV-1 (NL4-3)).
Assay [2] has the same target. As to the kind of experiment: cross-linking; disulfide cross-linking of purified CA A14C/E45C by dialysis in assembly buffer (25 mM Tris-Cl pH 8.0, 1 M NaCl) with falling β-ME at 4°C; hexamers assessed by SDS-PAGE, tubes by transmission electron microscopy.
Assay [3] shares this target. As to the kind of experiment: co-sedimentation; 20 μL CA tubes (~1.4 μM) mixed with 80 μL clarified HEK293T whole-cell lysate (1.5 mg/mL) in CA binding buffer (10 mM Tris pH 7.4, 1.5 mM MgCl2, 10 mM KCl), 1 h at room temperature; 21,000 x g for 8 min at 4°C; NUP153C detected with anti-HA, signals normalized to input.

With “TRIM-NUP153C-HA S1412M (from UniProt Q0PF16 1-304; P49790 896-1475)”, in assay [1], the HIV-GFP transduction of HEK293T cells expressing TRIM-NUP153C, relative percentage of GFP-positive cells is 64.1%.

On to “TRIM-NUP153C-HA P1411M (from UniProt Q0PF16 1-304; P49790 896-1475)”, for which the HIV-GFP transduction of HEK293T cells expressing TRIM-NUP153C, relative percentage of GFP-positive cells; restriction significantly different from wild type in assay [1] was 67.9%. For the substance “recombinant purified multimeric HIV-1 CA tubes assembled from cross-linked CA hexamers (CA A14C/E45C) (natural protein)”, in assay [2], the stoichiometry N was found to be 6. As to “TRIM-NUP153C-HA T1416M (from UniProt Q0PF16 1-304; P49790 896-1475)”, the HIV-GFP transduction of HEK293T cells expressing TRIM-NUP153C, relative percentage of GFP-positive cells in assay [1] was 86.8%. Same read-out and setting: with “TRIM-NUP153C-HA V1414I (from UniProt Q0PF16 1-304; P49790 896-1475)” the figure was 63.9%. For “TRIM-NUP153C-HA G1413W (from UniProt Q0PF16 1-304; P49790 896-1475)”, the percent bound to CA tubes (cosedimented) in assay [3] is 59%. Take “TRIM-NUP153C-HA G1418A (from UniProt Q0PF16 1-304; P49790 896-1475)”: the HIV-GFP transduction of HEK293T cells expressing TRIM-NUP153C, relative percentage of GFP-positive cells in assay [1] was found to be 79%. The same measure, in the same setting: the value for “TRIM-NUP153C-HA G1413M (from UniProt Q0PF16 1-304; P49790 896-1475)” was 61.7%; that for “TRIM-NUP153C-HA F1417Y (from UniProt Q0PF16 1-304; P49790 896-1475)” was 77.9%. For the substance “TRIM-NUP153C-HA S1412P (from UniProt Q0PF16 1-304; P49790 896-1475)”, the percent bound to CA tubes (cosedimented) in assay [3] came to 63%. Take “TRIM-NUP153C-HA F1415M (from UniProt Q0PF16 1-304; P49790 896-1475)”: in assay [1], the HIV-GFP transduction of HEK293T cells expressing TRIM-NUP153C, relative percentage of GFP-positive cells amounted to 52%. With “TRIM-NUP153C(human)-HA, wild type (from UniProt Q0PF16 1-304; P49790 896-1475)”, the HIV-GFP transduction of HEK293T cells expressing TRIM-NUP153C, GFP-positive cells relative to the no TRIM control (flow cytometry) in assay [1] came to 53%. The percent detected in the pellet fraction with CA tubes in assay [3] amounted to 46%.
